Assay results: patent publication US20240189442

Tests used:
SEQ ID NO: 50 = tested on: T1, SEQ ID NO: 50
T1 sequence: LSGRSDNH

SEQ ID NO: 51 = tested on: T2, SEQ ID NO: 51
T2 sequence: SGRSA

SEQ ID NO: 52 = tested on: T3, SEQ ID NO: 52
T3 sequence: LGGSGRSANAILE

SEQ ID NO: 53 = tested on: T4, SEQ ID NO: 53
T4 sequence: LGGSGRNAQVRLE

SEQ ID NO: 54 = tested on: T5, SEQ ID NO: 54
T5 sequence: GSGRNAQV

Sequence of Tissue-type Plasminogen Activator (tPA) (P00750 36-562): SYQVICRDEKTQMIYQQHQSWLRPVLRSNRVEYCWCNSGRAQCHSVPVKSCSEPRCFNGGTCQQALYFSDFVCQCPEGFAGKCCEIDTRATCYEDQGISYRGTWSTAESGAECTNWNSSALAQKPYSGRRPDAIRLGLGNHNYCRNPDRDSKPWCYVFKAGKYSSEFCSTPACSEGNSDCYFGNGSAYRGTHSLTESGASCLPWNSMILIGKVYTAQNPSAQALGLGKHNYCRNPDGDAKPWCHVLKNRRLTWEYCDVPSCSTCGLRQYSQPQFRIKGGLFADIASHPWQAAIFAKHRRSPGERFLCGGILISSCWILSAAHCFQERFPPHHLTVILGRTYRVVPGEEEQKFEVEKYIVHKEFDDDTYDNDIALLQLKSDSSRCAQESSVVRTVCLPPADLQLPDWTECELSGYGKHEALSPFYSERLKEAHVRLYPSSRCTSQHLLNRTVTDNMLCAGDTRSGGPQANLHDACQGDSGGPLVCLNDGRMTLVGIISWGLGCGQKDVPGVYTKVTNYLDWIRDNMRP

Substance	Fold of Increase, fluorescence intensity (FRET cleavage assay) (SEQ ID NO: 50) [fold]	Time to Reach Plateau (hr), fluorescence intensity (FRET cleavage assay) (SEQ ID NO: 50) [h]	Fold of Increase, fluorescence intensity (FRET cleavage assay) (SEQ ID NO: 51) [fold]	Time to Reach Plateau (hr), fluorescence intensity (FRET cleavage assay) (SEQ ID NO: 51) [h]	Fold of Increase, fluorescence intensity (FRET cleavage assay) (SEQ ID NO: 52) [fold]	Time to Reach Plateau (hr), fluorescence intensity (FRET cleavage assay) (SEQ ID NO: 52) [h]	Fold of Increase, fluorescence intensity (FRET cleavage assay) (SEQ ID NO: 53) [fold]	Time to Reach Plateau (hr), fluorescence intensity (FRET cleavage assay) (SEQ ID NO: 53) [h]	Fold of Increase, fluorescence intensity (FRET cleavage assay) (SEQ ID NO: 54) [fold]	Time to Reach Plateau (hr), fluorescence intensity (FRET cleavage assay) (SEQ ID NO: 54) [h]	Fold of Increase, fluorescence intensity; tPA digestion at 2.25 × 10^-2 mg/mL (SEQ ID NO: 50) [fold]	Fold of Increase, fluorescence intensity; tPA digestion at 7.5 × 10^-3 mg/mL (SEQ ID NO: 50) [fold]	Fold of Increase, fluorescence intensity; tPA digestion at 2.25 × 10^-2 mg/mL (SEQ ID NO: 51) [fold]	Fold of Increase, fluorescence intensity; tPA digestion at 7.5 × 10^-3 mg/mL (SEQ ID NO: 51) [fold]	Fold of Increase, fluorescence intensity; tPA digestion at 2.25 × 10^-2 mg/mL (SEQ ID NO: 52) [fold]	Fold of Increase, fluorescence intensity; tPA digestion at 7.5 × 10^-3 mg/mL (SEQ ID NO: 52) [fold]	Fold of Increase, fluorescence intensity; tPA digestion at 2.25 × 10^-2 mg/mL (SEQ ID NO: 53) [fold]	Fold of Increase, fluorescence intensity; tPA digestion at 7.5 × 10^-3 mg/mL (SEQ ID NO: 53) [fold]	Fold of Increase, fluorescence intensity; tPA digestion at 2.25 × 10^-2 mg/mL (SEQ ID NO: 54) [fold]	Fold of Increase, fluorescence intensity; tPA digestion at 7.5 × 10^-3 mg/mL (SEQ ID NO: 54) [fold]
Urokinase-type Plasminogen Activator (uPA)	4.9	1.7	9.6	1.8	3.1	1.4	3	1.6	4.7	1.4	–	–	–	–	–	–	–	–	–	–
Tissue-type Plasminogen Activator (tPA)	–	–	–	–	–	–	–	–	–	–	1.1	0.63	5.4	2.1	2.1	1.2	1.3	0.73	2.6	0.91
